Measured values as given in publication PMC10758017.

T1: TGFβRI/TGFβRII receptor complex (mouse (endogenous in MFB-F11)) (UniProt Q64729)
T1 sequence 1: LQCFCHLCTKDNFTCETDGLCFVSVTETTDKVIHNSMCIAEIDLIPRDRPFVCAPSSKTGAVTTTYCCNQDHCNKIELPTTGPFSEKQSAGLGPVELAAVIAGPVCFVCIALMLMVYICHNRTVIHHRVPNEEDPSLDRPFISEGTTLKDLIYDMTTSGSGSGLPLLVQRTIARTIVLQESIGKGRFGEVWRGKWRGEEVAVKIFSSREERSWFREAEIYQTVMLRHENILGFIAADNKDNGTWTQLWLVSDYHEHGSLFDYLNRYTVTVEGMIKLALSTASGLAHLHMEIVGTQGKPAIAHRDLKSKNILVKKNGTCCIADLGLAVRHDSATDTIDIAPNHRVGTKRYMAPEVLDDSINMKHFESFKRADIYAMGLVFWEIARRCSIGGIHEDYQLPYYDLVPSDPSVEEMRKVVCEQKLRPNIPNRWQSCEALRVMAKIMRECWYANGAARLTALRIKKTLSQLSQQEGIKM
T1 sequence 2: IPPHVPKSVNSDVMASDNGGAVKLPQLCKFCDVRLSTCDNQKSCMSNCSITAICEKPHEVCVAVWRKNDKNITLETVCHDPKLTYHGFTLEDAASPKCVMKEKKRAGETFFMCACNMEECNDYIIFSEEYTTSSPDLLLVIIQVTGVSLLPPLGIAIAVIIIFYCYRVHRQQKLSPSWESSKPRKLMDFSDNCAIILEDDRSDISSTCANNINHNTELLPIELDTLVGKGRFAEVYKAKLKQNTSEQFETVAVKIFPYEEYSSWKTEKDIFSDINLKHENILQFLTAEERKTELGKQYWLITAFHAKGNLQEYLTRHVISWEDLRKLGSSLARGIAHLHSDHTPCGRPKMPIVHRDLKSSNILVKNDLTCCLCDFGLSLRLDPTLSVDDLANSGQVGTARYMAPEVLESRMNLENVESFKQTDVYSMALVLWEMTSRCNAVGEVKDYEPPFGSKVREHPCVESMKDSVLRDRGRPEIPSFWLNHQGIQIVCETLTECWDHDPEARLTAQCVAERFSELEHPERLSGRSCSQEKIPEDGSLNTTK


The binders below were run against T1, TGFβRI/TGFβRII receptor complex (mouse (endogenous in MFB-F11)).

Smad2 mRNA, ddCt (qRT-PCR), IP at 50 μM against the reference inhibitor SB-525334 at 50 nM | Binder
-2.4 | AYCFRNVQD [peptide inhibitor 1.5 …]
-12.2 | LDAAYCFRN [peptide inhibitor 1.2 …]
-10.5 | DAAYCFRNV [peptide inhibitor 1.3 …]

Target: T1, TGFβRI/TGFβRII receptor complex (mouse (endogenous in MFB-F11))
Remark: another data set of the same source

Smad4 mRNA, ddCt (qRT-PCR), IP at 50 μM against the reference inhibitor SB-525334 at 50 nM | Binder
0.9 | AYCFRNVQD [peptide inhibitor 1.5 …]
-11.3 | LDAAYCFRN [peptide inhibitor 1.2 …]
-9.3 | DAAYCFRNV [peptide inhibitor 1.3 …]

Target: T1, TGFβRI/TGFβRII receptor complex (mouse (endogenous in MFB-F11))
Remark: another data set of the same source

Jun N-terminal kinase (JNK1) mRNA, ddCt (qRT-PCR), IP at 50 μM against the reference inhibitor SB-525334 at 50 nM | Binder
-0.1 | AYCFRNVQD [peptide inhibitor 1.5 …]
-15.3 | LDAAYCFRN [peptide inhibitor 1.2 …]
-13.4 | DAAYCFRNV [peptide inhibitor 1.3 …]

Target: T1, TGFβRI/TGFβRII receptor complex (mouse (endogenous in MFB-F11))
Remark: another data set of the same source

Smad3 mRNA, ddCt (qRT-PCR), IP at 50 μM against the reference inhibitor SB-525334 at 50 nM | Binder
0.2 | AYCFRNVQD [peptide inhibitor 1.5 …]
-11.9 | LDAAYCFRN [peptide inhibitor 1.2 …]
-9.5 | DAAYCFRNV [peptide inhibitor 1.3 …]
